Measurements: article doi:10.1101/2020.06.18.159665 (bioRxiv, 2020)
Several values for one entry are separate records, joined by “and”; a condition that tells them apart may be missing. Identical values can stand only once. Blank lines part the entries; values can stand above or below the binder they belong to.

Key:
[1] = molecular target: biotinylated 6X-His-GSK3β (human, UniProt P49841 1-420, biotin (site not stated)); test: BLI
[2] = molecular target: N- and C-terminal double His-tagged GSK3β (His-GSK3β-His) (human, UniProt P49841 1-420); test: SPR
Sequence of N- and C-terminal double His-tagged GSK3β (His-GSK3β-His) (P49841 whole entry): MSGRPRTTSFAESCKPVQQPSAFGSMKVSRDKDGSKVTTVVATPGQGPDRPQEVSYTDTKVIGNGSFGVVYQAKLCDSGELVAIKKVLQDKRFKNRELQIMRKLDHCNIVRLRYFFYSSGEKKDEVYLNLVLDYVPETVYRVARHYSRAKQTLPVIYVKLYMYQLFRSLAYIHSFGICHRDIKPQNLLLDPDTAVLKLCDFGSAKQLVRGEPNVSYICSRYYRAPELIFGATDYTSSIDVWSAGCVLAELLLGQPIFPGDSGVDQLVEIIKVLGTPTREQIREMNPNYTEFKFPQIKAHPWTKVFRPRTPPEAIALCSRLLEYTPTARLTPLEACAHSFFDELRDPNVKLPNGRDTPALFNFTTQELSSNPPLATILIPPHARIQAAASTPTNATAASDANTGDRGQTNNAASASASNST

[3] = molecular target: 6X-HisGSK3β purchased from Signalchem (G09-10H-05) (human, UniProt P49841 1-420); test: MST
Sequence of 6X-HisGSK3β purchased from Signalchem (G09-10H-05) (P49841 whole entry): as above

Sequence of biotinylated 6X-His-GSK3β (P49841 whole entry): as above

- Kd [1]: 3.6 µM and 3.8 µM
- Kd [2]: 1.9 µM and 3.2 µM
B1: FRATide (peptide)
peptide: DPHRLLQQLVLSGNLIKEAVRRLHS

- Kd [3]: 5.7 µM
- koff [2]: 0.000249 s⁻¹
- kon [2]: 495 ± 31.4 M⁻¹ s⁻¹
B2: hDISCtide, 44-mer peptide derived from human DISC1 (residues 193-236) (peptide, UniProt Q9NRI5 193-236, looked up)
peptide: PEVPPTPPGSHSAFTSSFSFIRLSLGSAGERGEAEGCPPSREAE

- Kd [1]: 63.6 µM
B3: AxinGID (peptide)
peptide: VEPQKFAEELIHRLEAVQ
